Data reported in US20030186920A1.

How the values were obtained:
Experiment in all cases: cell-based or functional assay
[1] = target: bovine Flk-1 (VEGFR-2), endogenous on bovine aortic endothelial cells (BAEC) (bovine)
[2] = target: T1, bovine Flt-1 (VEGFR-1), endogenous on bovine aortic endothelial cells (BAEC) (bovine)
T1 sequence: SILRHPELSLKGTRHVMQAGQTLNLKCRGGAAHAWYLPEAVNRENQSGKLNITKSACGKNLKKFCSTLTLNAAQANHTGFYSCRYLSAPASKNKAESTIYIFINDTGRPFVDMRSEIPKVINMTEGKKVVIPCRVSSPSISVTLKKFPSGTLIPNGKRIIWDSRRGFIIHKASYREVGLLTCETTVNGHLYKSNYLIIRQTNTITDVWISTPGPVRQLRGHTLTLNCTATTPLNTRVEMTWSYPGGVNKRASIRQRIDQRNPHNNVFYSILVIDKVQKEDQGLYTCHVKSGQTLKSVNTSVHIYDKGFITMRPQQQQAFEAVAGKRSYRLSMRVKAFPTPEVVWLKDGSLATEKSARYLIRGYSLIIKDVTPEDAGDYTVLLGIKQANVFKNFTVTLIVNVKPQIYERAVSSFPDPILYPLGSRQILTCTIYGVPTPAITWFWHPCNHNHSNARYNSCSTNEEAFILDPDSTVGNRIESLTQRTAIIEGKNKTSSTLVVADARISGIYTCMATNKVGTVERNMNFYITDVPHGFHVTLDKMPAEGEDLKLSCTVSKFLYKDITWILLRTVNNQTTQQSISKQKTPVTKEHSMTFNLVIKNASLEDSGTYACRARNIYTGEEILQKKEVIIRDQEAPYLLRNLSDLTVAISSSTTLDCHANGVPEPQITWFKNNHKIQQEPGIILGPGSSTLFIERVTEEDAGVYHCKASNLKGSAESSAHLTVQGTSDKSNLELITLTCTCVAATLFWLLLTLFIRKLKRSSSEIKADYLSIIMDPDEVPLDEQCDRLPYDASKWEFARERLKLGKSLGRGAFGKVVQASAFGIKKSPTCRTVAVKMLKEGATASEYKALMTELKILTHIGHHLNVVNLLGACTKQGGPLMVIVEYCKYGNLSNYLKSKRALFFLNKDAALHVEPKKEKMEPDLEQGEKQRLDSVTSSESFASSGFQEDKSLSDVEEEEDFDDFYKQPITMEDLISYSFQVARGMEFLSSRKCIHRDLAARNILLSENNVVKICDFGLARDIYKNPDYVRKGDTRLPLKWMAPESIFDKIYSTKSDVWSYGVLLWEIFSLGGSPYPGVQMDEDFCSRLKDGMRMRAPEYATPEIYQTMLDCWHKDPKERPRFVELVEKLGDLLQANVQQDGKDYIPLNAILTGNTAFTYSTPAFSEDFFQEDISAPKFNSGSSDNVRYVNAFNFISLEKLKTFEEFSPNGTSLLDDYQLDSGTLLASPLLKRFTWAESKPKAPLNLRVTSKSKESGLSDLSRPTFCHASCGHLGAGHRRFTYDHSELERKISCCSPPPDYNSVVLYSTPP

[3] = target: T1, bovine Flt-1 (VEGFR-1), endogenous on bovine aortic endothelial cells (BAEC) (bovine); remark: listed apart in the source

Molecule | BAEC migration (modified Boyden chamber, 5 h), VEGF 2.5x10^-10 M (% increase over PBS-stimulated cells) [1] | BAEC migration (modified Boyden chamber, 5 h), VEGF 10^-9 M (% increase over PBS-stimulated cells) [1] | BAEC migration (modified Boyden chamber, 5 h), VEGF 10^-10 M (% increase over PBS-stimulated cells) [1] | BAEC proliferation (cell count at 72 h), VEGF 2.5x10^-10 M (% increase over DMEM/1% FBS) [1] | BAEC proliferation (cell count at 72 h), VEGF 10^-10 M (% increase over DMEM/1% FBS) [1] | BAEC proliferation (cell count at 72 h), VEGF 10^-11 M (% increase over DMEM/1% FBS) [1] | Flk-1 phosphorylation in BAEC stimulated with VEGF (10^-9 M), anti-phosphotyrosine Western blot of immunoprecipitated receptor (fold over PBS-treated cells) [1] | PAF synthesis by BAEC (3H-acetate incorporation, 15 min), VEGF 10^-8 M (fold over PBS-treated cells) [1] | PAF synthesis by BAEC (3H-acetate incorporation, 15 min), VEGF 10^-9 M (fold over PBS-treated cells) [1] | PAF synthesis by BAEC (3H-acetate incorporation, 15 min), VEGF 10^-10 M (fold over PBS-treated cells) [1] | Flt-1 phosphorylation in BAEC stimulated with VEGF (10^-9 M), anti-phosphotyrosine Western blot of immunoprecipitated receptor (fold over PBS-treated cells) [2] | PAF synthesis by BAEC (3H-acetate incorporation, 15 min), PlGF 10^-8 M (% increase over PBS-treated cells) [3]
human recombinant vascular growth factor, VEGF165 (PeproTech Inc.) (from UniProt P15692 27-191) (ligand) | 83 | 130 | 46 | 219 | 183 | 62 | 13.2 | 35.9 | 20.4 | 7.2 | 1.5 | 
human placenta growth factor, PlGF152 (R & D Systems) (ligand, UniProt P49763-3 19-170, looked up) LPAVPPQQWALSAGNGSSEVEVVPFQEVWGRSYCRALERLVDVVSEYPSEVEHMFSPSCVSLLRCTGCCGDENLHCVPVETANVTMQLLKIRSGDRPSYVELTFSQHVRCECRPLREKMKPERRRPKGRGKRRREKQRPTDCHLCGDAVPRR |  |  |  |  |  |  |  |  |  |  |  | 67
